Target: T1, ngζ_1 toxin (zeta_1) of Neisseria gonorrhoeae, wild type (Neisseria gonorrhoeae, UniProt D5K9G7)
T1 sequence: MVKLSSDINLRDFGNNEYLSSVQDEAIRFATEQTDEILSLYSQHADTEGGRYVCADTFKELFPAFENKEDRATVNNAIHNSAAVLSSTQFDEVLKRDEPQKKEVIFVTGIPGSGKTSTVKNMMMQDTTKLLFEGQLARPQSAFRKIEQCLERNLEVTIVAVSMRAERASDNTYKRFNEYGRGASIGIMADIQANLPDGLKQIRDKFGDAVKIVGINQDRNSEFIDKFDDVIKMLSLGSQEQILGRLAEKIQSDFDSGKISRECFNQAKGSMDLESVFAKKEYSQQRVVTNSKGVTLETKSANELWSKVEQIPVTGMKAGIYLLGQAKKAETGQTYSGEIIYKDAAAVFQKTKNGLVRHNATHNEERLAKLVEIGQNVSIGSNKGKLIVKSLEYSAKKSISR
Experiment: crystal structure
Conditions: both partners purified

B1: ngε_1 antitoxin (epsilon_1) of Neisseria gonorrhoeae (natural protein)
chain: MNKVEPQESNAIRMIKEACEKNRRMMTDEAFRKEVEKRLYAGPSPELLAKLRVLWAANKEQ
notes: also called ng_ɛ1; source: E. coli BL21(DE3)-RIL, purified as ngε_1/ngζ_1 complex (Ni-NTA, standard chromatographic procedures)
Does B1 bind?
Result: binds

— PMC5923241, “The ng_ζ1 toxin of the gonococcal epsilon/zeta toxin/antitoxin system drains precursors for cell wall synthesis” (Nature Communications, 2018)
